Results: paper PMC5120205 (2016)

B1: D2-06-N2 (IGHV1-69*01 germline-reverted) (antibody, V domains shown)
VH: QVQLVQSGAEVKKPGSSVKVSCKASGGTFSSYAISWVRQAPGQGLEWMGGIIPIFGTANYAQKFQGRVTITADESTSTAYMELSSLRSEDTAVYYCARDRPPGAQFDTWGQGTLVTVSS
VL: not shown
B2: D4-10-N1 germline-reverted (IGHV4-39) (antibody, V domains shown)
VH: QLQLQESGPGLVKPSETLSLTCTVSGGSISSSSYYWGWIRQPPGKGLEWIGSIYYSGSTYYNPSLKSRVTISVDTSKNQFSLKLSSVTAADTAVYYCAKPKSRDRGGPGDDYFGMDVWGQGIMVTVSS
VL: DIQLTQSPSFLSASVADRVTITCRASQAVRSSLAWYQQKPGKAPQLLIYSASTLENGVSSRFSGSGPGTEFTLTISSLQPEDVGTYYCQQLNTYPFTFGPGTKVEIK

Legend:
IsdB NEAT2 domain = IsdB NEAT2 domain (Staphylococcus aureus strain USA300); assay: SPR
[1] = biological target: recombinant full-length IsdB (Staphylococcus aureus strain USA300, UniProt Q2FHV2 41-613); assay: SPR

Binder | Kd (IsdB NEAT2 domain) [nM] | Kd [1] [nM]
B1 | 24.1 | 
B2 |  | 90.7
